This note sets out measurements from article PMC3196576, “Probing the Functional Mechanism of Escherichia coli GroEL Using Circular Permutation” (PLoS ONE, 2011).

Series [1] deals with the molecule itself. As to the kind of experiment: SEC; gel filtration profiles observed during purification (AKTA FPLC, 4°C); data not shown. A general note: SEC sorts molecules by how far they enter the pores of the column.
The target of the next series is T1, GroEL R231W (E. coli, UniProt P0A6F5 1-548, R231W).
T1 construct: GroEL, Escherichia coli, with Arg231 replaced by tryptophan; also called RW; source: purified according to the protocol of Machida et al. [34]; copies: 14
As to the kind of experiment: Proteinase K protection of BeFx football complexes, recovered by centrifugal concentration (100 kDa cutoff), SDS-PAGE; 0.5 µM GroEL 14-mer, 1.0 µM unfolded rhodanese, 1.1 µM GroES, 1 mM BeCl2, 10 mM NaF, 1 mM ATP; 30 mM Tris-HCl pH 7.2, 50 mM KCl, 10 mM Mg(CH3COO)2, 25°C; 1 µg/ml Proteinase K for 30 min. Conditions: both partners purified.

B1: GroEL CP254 (other, E. coli)
chain: MAAAQYVEGEALATLVVNTMRGIVKVAAVKAPGFGDRRKAMLQDIATLTGGTVISEEIGMELEKATLEDLGQAKRVVINKDTTTIIDGVGEEAAIQGRVAQIRQQIEEATSDYDREKLQERVAKLAGGVAVIKVGAATEVEMKEKKARVEDALHATRAAVEEGVVAGGGVALIRVASKLADLRGQNEDQNVGIKVALRAMEAPLRQIVLNCGEEPSVVANTVKGGDGNYGYNAATEEYGNMIDMGILDPTKVTRSALQYAASVAGLMITTECMVTDLPKNDAADLGAAGGMGGMGGMGGMMVDAAKDVKFGNDARVKMLRGVNVLADAVKVTLGPKGRNVVLDKSFGAPTITKDGVSVAREIELEDKFENMGAQMVKEVASKANDAAGDGTTTATVLAQAIITEGLKAVAAGMNPMDLKRGIDKAVTAAVEELKALSVPCSDSKAIAQVGTISANSDETVGKLIAEAMDKVGKEGVITVEDGTGLQDELDVVEGMQFDRGYLSPYFINKPETGAVELESPFILLADKKISNIREMLPVLEAVAKAGKPLLIIAEDVAN
notes: start methionine and extraneous N-terminal residues (Met-Ala-Ala-Ala-Gln-Tyr); GroEL, E. coli, from Val254 to the original C-terminus; Val-Asp dipeptide linker (SalI site) joining the original C- and N-termini; GroEL, E. coli, from the original N-terminus minus the N-terminal methionine to Asp253 (Ala251-Glu252-Asp253); C-terminal residues after Asp253 (Val-Ala-Asn); Circular permutant; source: …
For orientation: stoichiometry N means the number of molecules, sites or subunits per partner or assembly. For B1, the “stoichiometry N” value in series [1] was ~14.

B2: GroES (natural protein, E. coli, UniProt P0A6F9 1-97, looked up)
chain: MNIRPLHDRVIVKRKEVETKSAGGIVLTGSAAAKSTRGEVLAVGNGRILENGEVKPLDVKVGDIVIFNDGYGVKSEKIDNEEVLIMSESDILAIVEA
notes: GroES cochaperonin, Escherichia coli; 7-mer; also called cochaperonin GroES; co-chaperonin; source: purified according to Iwasa et al. [35], with an 80°C heat treatment
For the molecule B2, the binding result with GroEL R231W is on record as “binds”.

B3: GroEL CP209 (other, E. coli)
chain: METGAVELESPFILLADKKISNIREMLPVLEAVAKAGKPLLIIAEDVEGEALATLVVNTMRGIVKVAAVKAPGFGDRRKAMLQDIATLTGGTVISEEIGMELEKATLEDLGQAKRVVINKDTTTIIDGVGEEAAIQGRVAQIRQQIEEATSDYDREKLQERVAKLAGGVAVIKVGAATEVEMKEKKARVEDALHATRAAVEEGVVAGGGVALIRVASKLADLRGQNEDQNVGIKVALRAMEAPLRQIVLNCGEEPSVVANTVKGGDGNYGYNAATEEYGNMIDMGILDPTKVTRSALQYAASVAGLMITTECMVTDLPKNDAADLGAAGGMGGMGGMGGMMVDAAKDVKFGNDARVKMLRGVNVLADAVKVTLGPKGRNVVLDKSFGAPTITKDGVSVAREIELEDKFENMGAQMVKEVASKANDAAGDGTTTATVLAQAIITEGLKAVAAGMNPMDLKRGIDKAVTAAVEELKALSVPCSDSKAIAQVGTISANSDETVGKLIAEAMDKVGKEGVITVEDGTGLQDELDVVEGMQFDRGYLSPYFINKP
notes: start methionine from the vector-derived ATG; GroEL, E. coli, from Glu209 to the original C-terminus; Val-Asp dipeptide linker (SalI site) joining the original C- and N-termini; GroEL, E. coli, from the original N-terminus minus the N-terminal methionine to Pro208; Circular permutant; source: E. coli JM109, purified (protocol of Machida et al. [34]); copies: 14
As for B3, in series [1], the “stoichiometry N” value was ~14.

B4: bovine rhodanese (enzyme, UniProt P00586 1-297, looked up)
chain: MVHQVLYRALVSTKWLAESVRAGKVGPGLRVLDASWYSPGTREARKEYLERHVPGASFFDIEECRDKASPYEVMLPSEAGFADYVGSLGISNDTHVVVYDGDDLGSFYAPRVWWMFRVFGHRTVSVLNGGFRNWLKEGHPVTSEPSRPEPAIFKATLNRSLLKTYEQVLENLESKRFQLVDSRAQGRYLGTQPEPDAVGLDSGHIRGSVNMPFMNFLTEDGFEKSPEELRAMFEAKKVDLTKPLIATCRKGVTACHIALAAYLCGKPDVAIYDGSWFEWFHRAPPETWVSQGKGGKA
notes: rhodanese (thiosulfate sulfurtransferase), bovine; Unfolded for 1 hr in 6 M guanidine hydrochloride at 25°C before it was added to GroEL; also called unfolded rhodanese; source: bought: Sigma
With B4, the binding result with GroEL R231W is listed as “binds”.
